The supplement of paper PMC7877785
± gives the uncertainty stated by the source.

Experiment: self-splicing fitness, log relative to wild type (ln ratio); higher = more splicing; Tetrahymena group I intron in knt gene, E. coli kanamycin selection, DiMSum; sequences stand for … in CUCUCU…GGAGGGAAAAGUUAUCAGGCAUGCACCUGGUAGCUAGUCUUUAAACCAAUAGAUUGCAUCGGUUUAAAAGGCAAGACCGUCAAAUUGCGGGAAAGGGGUCAACAGCCGUUCAGUACCAAGUCUCAGGGGAAACUUUGAGAUGGCCUUGCAAAGGGUAUGGUAAUAAGCUGACGGACAUGGUCCUAACCACGCAGCCAAGUCCUAAGUCAACAGAUCUUCUGUUGAUAUGGAUGCAGUUCACAGACUAAAUGUCGGUCGGGGAAGAUGUAUUCUUCUCAUAAGAUAUAGUCGGACCUCUCCUUAAUGGGAGCUAGCGGAUGAAGUGAUGCAACACUGGAGCCGCUGGGAACUAAUUUGUAUGCGAAAGUAUAUUGAUUAGUUUUGGAGUACUCGUGGUCG
Method in brief: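 Colonies from six replicate transformations of E. coli BL21(DE3) were pooled and amplicon-sequenced on an Illumina HiSeq 2500. The library placed an intron with all eight P1ex-region nucleotides randomised inside the knt kanamycin-resistance gene on pET-22b(+), and cells grew overnight at 37°C or 30°C on LB agar with or without 25 μg/mL kanamycin (plus 100 μg/mL carbenicillin, 50 μM IPTG, 0.2% rhamnose). Fitness is the DiMSum error-weighted combination of wild-type-normalised replicate fold changes, kanamycin versus none.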

GCAUAGCAAUAUUACGCCCU
self-splicing fitness (ln) (30 °C): -1.78 ± 0.35
self-splicing fitness (ln) (37 °C): -0.121 ± 0.33

GAUUAGCAAUAUUACGGAUC
self-splicing fitness (ln) (30 °C): -2.71 ± 0.4
self-splicing fitness (ln) (37 °C): -2.18 ± 0.32

ACUAAGCAAUAUUACGUUCA
self-splicing fitness (ln) (30 °C): -1.29 ± 0.1
self-splicing fitness (ln) (37 °C): -0.98 ± 0.098

CAACAGCAAUAUUACGGAAU
self-splicing fitness (ln) (30 °C): -2.96 ± 0.14
self-splicing fitness (ln) (37 °C): -3.05 ± 0.2

UGCCAGCAAUAUUACGUCAC
self-splicing fitness (ln) (37 °C): -2.01 ± 0.29

UUGAAGCAAUAUUACGUGUU
self-splicing fitness (ln) (30 °C): -4.53 ± 0.21
self-splicing fitness (ln) (37 °C): -1.92 ± 0.14

GUCGAGCAAUAUUACGUACA
self-splicing fitness (ln) (30 °C): -1.02 ± 0.15
self-splicing fitness (ln) (37 °C): -0.719 ± 0.17

AAAAAGCAAUAUUACGCUGC
self-splicing fitness (ln) (30 °C): -3.34 ± 0.4

UAGCAGCAAUAUUACGGGUG
self-splicing fitness (ln) (30 °C): -0.481 ± 0.058
self-splicing fitness (ln) (37 °C): -0.431 ± 0.075

UGAAAGCAAUAUUACGAUUA
self-splicing fitness (ln) (30 °C): -0.302 ± 0.065
self-splicing fitness (ln) (37 °C): 0.211 ± 0.096

CUUGAGCAAUAUUACGCGGU
self-splicing fitness (ln) (30 °C): -2.53 ± 0.33
self-splicing fitness (ln) (37 °C): -2.78 ± 0.48

AAUCAGCAAUAUUACGGGAU
self-splicing fitness (ln) (30 °C): -1.45 ± 0.08
self-splicing fitness (ln) (37 °C): -1.34 ± 0.087

CGAGAGCAAUAUUACGUGCA
self-splicing fitness (ln) (30 °C): -3.22 ± 0.23
self-splicing fitness (ln) (37 °C): -3.2 ± 0.43

CGUUAGCAAUAUUACGGUGU
self-splicing fitness (ln) (30 °C): -3.37 ± 0.19
self-splicing fitness (ln) (37 °C): -2.29 ± 0.17

GUAUAGCAAUAUUACGAAGA
self-splicing fitness (ln) (30 °C): -3.64 ± 0.47
self-splicing fitness (ln) (37 °C): -0.936 ± 0.23

GGUGAGCAAUAUUACGUUCU
self-splicing fitness (ln) (30 °C): 0.501 ± 0.28
self-splicing fitness (ln) (37 °C): -1.16 ± 0.27

ACAUAGCAAUAUUACGCCAG
self-splicing fitness (ln) (30 °C): -2.65 ± 0.18
self-splicing fitness (ln) (37 °C): -1.5 ± 0.21

CAUGAGCAAUAUUACGUUCU
self-splicing fitness (ln) (30 °C): -3.59 ± 0.27
self-splicing fitness (ln) (37 °C): -3.11 ± 0.26

GCUAAGCAAUAUUACGAGAU
self-splicing fitness (ln) (30 °C): -2.3 ± 0.12
self-splicing fitness (ln) (37 °C): -1.51 ± 0.14

AAUGAGCAAUAUUACGUCUG
self-splicing fitness (ln) (30 °C): -2.92 ± 0.15
self-splicing fitness (ln) (37 °C): -3 ± 0.21

UGCAAGCAAUAUUACGAUCA
self-splicing fitness (ln) (30 °C): 0.00924 ± 0.069
self-splicing fitness (ln) (37 °C): 0.117 ± 0.077

GGGAAGCAAUAUUACGAGUG
self-splicing fitness (ln) (30 °C): -3.06 ± 0.12
self-splicing fitness (ln) (37 °C): -1.81 ± 0.11

GUUCAGCAAUAUUACGGAGU
self-splicing fitness (ln) (30 °C): -1.48 ± 0.12
self-splicing fitness (ln) (37 °C): -0.963 ± 0.15

AACGAGCAAUAUUACGCGUC
self-splicing fitness (ln) (30 °C): -3.01 ± 0.22
self-splicing fitness (ln) (37 °C): -2.85 ± 0.38

GAGAAGCAAUAUUACGCGCA
self-splicing fitness (ln) (30 °C): -0.304 ± 0.11
self-splicing fitness (ln) (37 °C): 0.342 ± 0.12

GGAAAGCAAUAUUACGGCUA
self-splicing fitness (ln) (30 °C): -0.34 ± 0.2
self-splicing fitness (ln) (37 °C): -0.931 ± 0.18

CAAAAGCAAUAUUACGUUAC
self-splicing fitness (ln) (30 °C): -3.12 ± 0.22
self-splicing fitness (ln) (37 °C): -2.33 ± 0.23

GCUGAGCAAUAUUACGGGGG
self-splicing fitness (ln) (30 °C): -2.59 ± 0.2
self-splicing fitness (ln) (37 °C): -1.8 ± 0.21

CUAUAGCAAUAUUACGAUCA
self-splicing fitness (ln) (30 °C): -3.08 ± 0.33
self-splicing fitness (ln) (37 °C): 0.388 ± 0.31

UCUAAGCAAUAUUACGAUUG
self-splicing fitness (ln) (30 °C): -3.4 ± 0.18
self-splicing fitness (ln) (37 °C): -2.26 ± 0.17

CUUCAGCAAUAUUACGGUUA
self-splicing fitness (ln) (30 °C): -1.58 ± 0.19
self-splicing fitness (ln) (37 °C): -1.08 ± 0.2

ACCGAGCAAUAUUACGCGUU
self-splicing fitness (ln) (30 °C): -2.95 ± 0.16
self-splicing fitness (ln) (37 °C): -1.58 ± 0.18

CCCCAGCAAUAUUACGUAGC
self-splicing fitness (ln) (30 °C): -3.93 ± 0.16
self-splicing fitness (ln) (37 °C): -2.93 ± 0.2

GAGUAGCAAUAUUACGGGCU
self-splicing fitness (ln) (30 °C): -1.43 ± 0.17
self-splicing fitness (ln) (37 °C): -1.94 ± 0.16

AAGCAGCAAUAUUACGCCUC
self-splicing fitness (ln) (37 °C): -1.22 ± 0.4

AGACAGCAAUAUUACGUGAC
self-splicing fitness (ln) (30 °C): -2.89 ± 0.15
self-splicing fitness (ln) (37 °C): -1.42 ± 0.13

GGGUAGCAAUAUUACGGUUA
self-splicing fitness (ln) (30 °C): -1.43 ± 0.14
self-splicing fitness (ln) (37 °C): -0.344 ± 0.12

CUUCAGCAAUAUUACGGUAG
self-splicing fitness (ln) (30 °C): -1.94 ± 0.12
self-splicing fitness (ln) (37 °C): -0.92 ± 0.14

AUUCAGCAAUAUUACGUCUC
self-splicing fitness (ln) (30 °C): -1.97 ± 0.14
self-splicing fitness (ln) (37 °C): -0.374 ± 0.13

CAACAGCAAUAUUACGAAAG
self-splicing fitness (ln) (30 °C): -0.908 ± 0.053
self-splicing fitness (ln) (37 °C): 0.316 ± 0.079

GAGAAGCAAUAUUACGACGG
self-splicing fitness (ln) (30 °C): -3.47 ± 0.29
self-splicing fitness (ln) (37 °C): -1.97 ± 0.23

UGGCAGCAAUAUUACGGAUU
self-splicing fitness (ln) (30 °C): -3.95 ± 0.24
self-splicing fitness (ln) (37 °C): -1.88 ± 0.2

GGCUAGCAAUAUUACGCGAA
self-splicing fitness (ln) (30 °C): -1.83 ± 0.085
self-splicing fitness (ln) (37 °C): -1.27 ± 0.08
